Earlier results in publication PMC5874834.

Target: VEGF165 VEGF165 (Homo sapiens) (UniProt P15692)
Chain of UniProt P15692 (P15692 207-321, chain 1 of 2): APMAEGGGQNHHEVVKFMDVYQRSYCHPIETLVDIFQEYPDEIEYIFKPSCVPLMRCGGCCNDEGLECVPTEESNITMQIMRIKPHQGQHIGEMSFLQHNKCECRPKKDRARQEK
Chain of UniProt P15692 (P15692 346-395, chain 2 of 2): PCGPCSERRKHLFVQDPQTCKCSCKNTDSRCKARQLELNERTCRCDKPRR

Kd: 1.6 pM
Substance: Brolucizumab scFv
